Measurements from article PMC4902170 (JCI insight, 2016).
Where two headings read alike, the source gives them in different places. Values belong to the molecule of their own block, whether it stands above or below them.

Tests used:
Test in all cases: SPR
[1] = target: Human haptoglobin (from pooled human plasma, a mixture of 1-1, 2-1, and 2-2 phenotype) (human) (UniProt P00738)
[2] = target: T1, Recombinant human CD163 protein (human, UniProt Q86VB7-1 42-1050)
[3] = target: T1, Recombinant human CD163 protein; remark: listed apart in the source

T1 sequence (Q86VB7 42-1050): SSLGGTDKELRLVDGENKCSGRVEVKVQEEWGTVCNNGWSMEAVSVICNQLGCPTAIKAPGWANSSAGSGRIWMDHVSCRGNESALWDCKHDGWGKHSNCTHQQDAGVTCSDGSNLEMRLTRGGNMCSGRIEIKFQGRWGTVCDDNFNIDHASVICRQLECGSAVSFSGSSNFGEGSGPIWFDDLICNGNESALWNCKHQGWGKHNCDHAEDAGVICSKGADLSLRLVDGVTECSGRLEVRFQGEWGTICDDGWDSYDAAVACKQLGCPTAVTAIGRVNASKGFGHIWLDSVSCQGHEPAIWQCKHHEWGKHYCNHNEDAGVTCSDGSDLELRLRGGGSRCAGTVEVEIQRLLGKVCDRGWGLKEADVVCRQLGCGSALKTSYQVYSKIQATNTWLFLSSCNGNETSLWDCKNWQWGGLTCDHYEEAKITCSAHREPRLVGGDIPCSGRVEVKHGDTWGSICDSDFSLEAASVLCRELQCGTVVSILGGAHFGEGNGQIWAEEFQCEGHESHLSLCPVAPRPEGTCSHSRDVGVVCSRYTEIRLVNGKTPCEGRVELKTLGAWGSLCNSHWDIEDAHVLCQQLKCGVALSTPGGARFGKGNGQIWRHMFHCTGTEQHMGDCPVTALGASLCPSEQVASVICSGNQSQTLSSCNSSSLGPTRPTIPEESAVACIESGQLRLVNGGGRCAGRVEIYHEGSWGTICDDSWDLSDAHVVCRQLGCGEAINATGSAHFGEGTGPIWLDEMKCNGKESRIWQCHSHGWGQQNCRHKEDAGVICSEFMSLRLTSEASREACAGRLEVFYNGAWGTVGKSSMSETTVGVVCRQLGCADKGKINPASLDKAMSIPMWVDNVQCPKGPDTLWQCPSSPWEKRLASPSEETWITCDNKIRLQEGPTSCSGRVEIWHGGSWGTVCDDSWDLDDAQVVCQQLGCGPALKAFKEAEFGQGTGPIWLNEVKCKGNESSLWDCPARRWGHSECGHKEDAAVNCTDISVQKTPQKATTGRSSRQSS

Kd [1]: 64 nM
Molecule: Recombinant HMGB1 (redox form not stated for the experiment) (from UniProt P09429 1-215) (natural protein)

Kd [2]: > 1000 nM
B1: Recombinant HMGB1 (redox form not stated for the experiment) (natural protein, human, UniProt P09429 1-215, looked up)
chain: MGKGDPKKPRGKMSSYAFFVQTCREEHKKKHPDASVNFSEFSKKCSERWKTMSAKEKGKFEDMAKADKARYEREMKTYIPPKGETKKKFKDPNAPKRPPSAFFLFCSEYRPKIKGEHPGLSIGDVAKKLGEMWNNTAADDKQPYEKKAAKLKEKYEKDIAAYRAKGKPDAAKKGVVKAEKSKKKKEEEEDEEDEEDEEEEEDEEDEDEEEDDDDE

Kd [3]: 130 nM
B2: HMGB1 and haptoglobin complexes (1:1 molar ratio) (complex)
chain 1: GKGDPKKPRGKMSSYAFFVQTCREEHKKKHPDASVNFSEFSKKCSERWKTMSAKEKGKFEDMAKADKARYEREMKTYIPPKGETKKKFKDPNAPKRPPSAFFLFCSEYRPKIKGEHPGLSIGDVAKKLGEMWNNTAADDKQPYEKKAAKLKEKYEKDIAAYRAKGKPDAAKKGVVKAEKSKKKKEEEDDEEDEEDEEEEEEEEDEDEEEDDDDE
chain 2: VDSGNDVTDIADDGCPKPPEIAHGYVEHSVRYQCKNYYKLRTEGDGVYTLNDKKQWINKAVGDKLPECEADDGCPKPPEIAHGYVEHSVRYQCKNYYKLRTEGDGVYTLNNEKQWINKAVGDKLPECEAVCGKPKNPANPVQ
chain 3: ILGGHLDAKGSFPWQAKMVSHHNLTTGATLINEQWLLTTAKNLFLNHSENATAKDIAPTLTLYVGKKQLVEIEKVVLHPNYSQVDIGLIKLKQKVSVNERVMPICLPSKDYAEVGRVGYVSGWGRNANFKFTDHLKYVMLPVADQDQCIRHYEGSTVPEKKTPKSPVGVQPILNEHTFCAGMSKYQEDTCYGDAGSAFAVHDLEEDTWYATGILSFDKSCAVAEYGVYVKVTSIQDWVQKTIAEN
